Results: article PMC2901902 (Nature, 2010)
One block for each binder: values may come before it. Where no end group is shown, it is not given here.

What was measured:
[1] = target: human DPF3b tandem PHD finger (residues 261–372) (human, UniProt Q92784-1 261-372); assay: NMR solution structure
[2] = target: DPF3b PHD12 D263A (human, UniProt Q92784-1 261-372, D263A); assay: ITC
[3] = target: DPF3b PHD12 F264A (human, UniProt Q92784-1 261-372, F264A); assay: ITC
[4] = target: DPF3b PHD12 with Ala mutation of Glu315 (human, UniProt Q92784-1 261-372, Ala mutation of Glu315); assay: ITC
[5] = target: T1, DPF3b PHD12 with Ala mutation of Asp335 (human, UniProt Q92784-1 261-372, Ala mutation of Asp335); assay: ITC
T1 sequence (looked up): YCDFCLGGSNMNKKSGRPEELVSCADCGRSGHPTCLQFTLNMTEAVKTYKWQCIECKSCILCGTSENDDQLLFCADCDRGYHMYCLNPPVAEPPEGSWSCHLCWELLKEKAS

binding result [1]: binds
Binder: GLGKGGAK(Ac)RHRKVLR (peptide, UniProt P62805 10-24, looked up) [histone H4K16ac peptide (residues 9–23)]

binding result [2]: binds
binding result [3]: binds
Binder: ARTKQTARKSTGGKAPRK (peptide, UniProt P68431 2-19, looked up) [unmodified histone H3 peptide (residues 1–18)]

binding result [4]: binds
binding result [5]: binds
Binder: ARTKQTARKSTGGK(Ac)APRK (peptide, UniProt P68431 2-19, looked up) [histone H3 peptide acetylated at lysine 14 (residues 1–18)]
